Results as given in publication PMC5156837.

Target: GST-TOC34 fusion protein (Arabidopsis thaliana) (UniProt Q38906)
Chain of UniProt Q38906 (Q38906 whole entry, the tested form may be a part): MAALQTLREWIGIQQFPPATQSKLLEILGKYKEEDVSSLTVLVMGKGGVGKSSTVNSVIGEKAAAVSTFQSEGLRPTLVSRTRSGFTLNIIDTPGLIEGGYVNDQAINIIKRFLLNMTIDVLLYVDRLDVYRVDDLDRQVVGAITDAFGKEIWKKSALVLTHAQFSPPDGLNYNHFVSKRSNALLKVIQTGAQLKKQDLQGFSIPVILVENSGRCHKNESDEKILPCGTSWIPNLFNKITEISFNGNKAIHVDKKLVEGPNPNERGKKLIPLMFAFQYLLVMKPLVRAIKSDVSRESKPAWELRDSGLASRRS

GTPase activity of TOC34 (free phosphate from GTP, 27°C, 30 min) with CBL10 and 5 mM CaCl2: 0.5 fold
Substance: CBL10-cMyc (thrombin-cleaved from GST-CBL10-cMyc) (from UniProt Q7FRS8 1-256)
